This note sets out measurements from patent US20240269235A1 (Gilead, published 2024).

For experiment [1], the target named is T1, trimeric murine IL-2 receptor (IL-2Rα, IL-2Rβ, and IL-2Rγ) on CTLL-2 cells (murine, UniProt P01590 22-268; P16297 27-539; P34902 23-369).
T1 sequence (looked up) 1: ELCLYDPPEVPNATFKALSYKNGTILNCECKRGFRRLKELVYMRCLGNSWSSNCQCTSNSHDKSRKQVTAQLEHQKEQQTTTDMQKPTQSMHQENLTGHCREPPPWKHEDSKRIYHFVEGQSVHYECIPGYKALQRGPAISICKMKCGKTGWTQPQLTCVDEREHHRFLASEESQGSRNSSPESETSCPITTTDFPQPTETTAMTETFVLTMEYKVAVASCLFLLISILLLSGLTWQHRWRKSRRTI
T1 sequence (looked up) 2: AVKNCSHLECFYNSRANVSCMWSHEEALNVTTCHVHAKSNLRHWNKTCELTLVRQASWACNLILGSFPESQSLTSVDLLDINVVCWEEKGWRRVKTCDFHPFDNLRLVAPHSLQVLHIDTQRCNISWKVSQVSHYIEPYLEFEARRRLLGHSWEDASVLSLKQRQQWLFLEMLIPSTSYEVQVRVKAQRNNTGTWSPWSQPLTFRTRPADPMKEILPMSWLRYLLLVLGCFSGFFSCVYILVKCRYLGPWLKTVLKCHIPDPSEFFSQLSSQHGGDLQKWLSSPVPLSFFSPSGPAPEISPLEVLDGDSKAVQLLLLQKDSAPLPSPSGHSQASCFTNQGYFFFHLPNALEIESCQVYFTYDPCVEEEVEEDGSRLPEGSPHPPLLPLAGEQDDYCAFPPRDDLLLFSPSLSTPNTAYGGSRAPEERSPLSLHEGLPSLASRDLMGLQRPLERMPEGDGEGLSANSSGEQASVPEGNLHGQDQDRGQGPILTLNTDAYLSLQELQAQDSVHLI
T1 sequence (looked up) 3: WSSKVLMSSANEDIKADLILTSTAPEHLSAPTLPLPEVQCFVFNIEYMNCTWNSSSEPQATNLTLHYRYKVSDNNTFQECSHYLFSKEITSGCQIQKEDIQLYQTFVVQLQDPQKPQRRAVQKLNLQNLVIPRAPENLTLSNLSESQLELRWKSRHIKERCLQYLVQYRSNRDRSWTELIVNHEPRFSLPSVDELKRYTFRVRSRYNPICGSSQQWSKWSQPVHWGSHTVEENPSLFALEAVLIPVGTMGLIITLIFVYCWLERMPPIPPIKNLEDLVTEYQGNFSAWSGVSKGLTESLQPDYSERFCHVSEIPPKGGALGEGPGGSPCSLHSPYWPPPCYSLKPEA
The experiment is described as follows: cell-based or functional assay.

For experiment [2], the target named is T1, trimeric murine IL-2 receptor (IL-2Rα, …). The experiment in a line: cell-based or functional assay. This is another data set of the same source.
Experiment [3] deals with T2, IL-2Rβ (recombinant IL-2 receptor β, R&D Systems Cat #:224-2B-025/CF), biotinylated (UniProt P14784 27-239, limits assumed, biotinylated using sulfo-NHS-LC-LC-Biotin).
T2 construct: Bought reagent; also called IL-2RB; CD122
T2 sequence (looked up): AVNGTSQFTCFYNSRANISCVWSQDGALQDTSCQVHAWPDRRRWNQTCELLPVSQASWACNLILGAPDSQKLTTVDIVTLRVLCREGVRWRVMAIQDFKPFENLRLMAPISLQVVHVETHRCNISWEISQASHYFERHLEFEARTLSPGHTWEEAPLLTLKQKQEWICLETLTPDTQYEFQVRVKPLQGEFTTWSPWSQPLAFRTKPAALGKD
The experiment in a line: SPR (Biacore), C1 or CM5 chip, biotinylated receptor on neutravidin. The text has this: (§1) Data for binding of Fc-IL-2 variant fusion proteins to IL-2Rα, IL-2Rβ and IL-2Rβγ heterodimer were collected on a Biacore platform using either C1 or CM5 chips. Neutravidin was immobilized using standard amine coupling methods and used to capture biotinylated receptors. Commercially sourced IL-2Rα (R&D Systems Cat #: 223-2A/CF) and IL-2Rβ receptors (R&D Systems Cat #:224-2B-025/CF) were biotinylated using sulfo-NHS-LC-LC-Biotin, desalted, and then captured on the neutravidin surfaces. […] Distinct purification tags were appended to the C-terminus of each chain. A FLAG epitope tag ([…]; SEQ ID NO: 257) was added at the C-terminus of IL-2Rβ subunit, followed by C-terminal Hiss tag ([…]; SEQ ID NO: 258). An AviTag™ ([…]; SEQ ID NO: 259) motif on the IL-2Rγ subunit allowed for site-specific biotinylation of the heterodimer.
(§2) Fc IL 2 fusion protein variants, Fc protein, and Proleukin were injected at various concentrations over these surfaces. Kinetic data obtained from these injections was used to extract kₒₙ and koff to calculate KD (KD=koff/kₒₙ). Experiments were run at 25° C. in HBS-EP+ running buffer (10 mM HEPES, 150 mM NaCl, 3 mM EDTA, 0.05% Tween20, pH 7.4 with 0.1 mg/ml BSA). Data shown in Table 5 for Fc IL-2 fusion protein variants binding to the indicated IL-2R surfaces were derived from the global fitting of data obtained from 2-5 independent surfaces.
A general note: Surface plasmon resonance follows binding to a sensor surface in real time, without labels.

Experiment [4] has as its target T3, IL-2Rα (recombinant IL-2 receptor α, R&D Systems Cat #: 223-2A/CF), biotinylated (human, UniProt P01589 22-213, limits assumed, biotinylated using sulfo-NHS-LC-LC-Biotin).
T3 construct: Bought reagent; also used here as the IL-2Rα partner of the in-silico analysis of PDB 2B5I (another construct); also called IL-2RA; CD25
T3 sequence (looked up): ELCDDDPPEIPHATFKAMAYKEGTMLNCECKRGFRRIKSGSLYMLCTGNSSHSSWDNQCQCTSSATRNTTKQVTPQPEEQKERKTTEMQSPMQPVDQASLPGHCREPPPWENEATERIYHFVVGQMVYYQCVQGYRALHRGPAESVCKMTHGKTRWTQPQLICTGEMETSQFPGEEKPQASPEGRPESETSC
The experiment is described as above.
Description: as §1, §2

Experiment [5] deals with T4, IL-2Rβγ heterodimer, custom biotinylated Fc fusion protein (human IL-2Rβ 27-240-Fc-FLAG / human IL-2Rγ … (human, site-specific biotinylation at the AviTag)).
T4 construct: Extracellular regions fused to IgG1 knob-in-hole Fc subunits with tags; also called IL-2 receptor βγ heterodimer; Fc-IL-2Rβγ
T4 sequence (chain, as listed by the source limits assumed): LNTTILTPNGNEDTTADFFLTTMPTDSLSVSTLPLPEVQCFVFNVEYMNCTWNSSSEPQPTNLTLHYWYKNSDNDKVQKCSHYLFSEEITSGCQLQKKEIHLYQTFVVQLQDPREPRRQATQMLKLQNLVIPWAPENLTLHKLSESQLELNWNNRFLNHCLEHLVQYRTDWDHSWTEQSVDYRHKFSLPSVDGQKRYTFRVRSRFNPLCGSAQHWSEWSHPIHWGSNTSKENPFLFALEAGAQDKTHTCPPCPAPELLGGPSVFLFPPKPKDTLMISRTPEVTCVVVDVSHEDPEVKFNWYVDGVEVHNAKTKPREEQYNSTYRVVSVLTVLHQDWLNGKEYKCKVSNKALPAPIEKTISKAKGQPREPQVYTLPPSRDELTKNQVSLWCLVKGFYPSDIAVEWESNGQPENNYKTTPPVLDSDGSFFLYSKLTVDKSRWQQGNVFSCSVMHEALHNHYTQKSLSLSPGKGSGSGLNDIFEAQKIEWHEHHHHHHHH
Described as above.
Description: as §1, §2

The target of experiment [6] is T5, human IL-2Rα on Treg cells (CD3+, CD4+, CD25hi, FoxP3+) of human PBMC (human, UniProt P01589 22-272).
T5 sequence (looked up): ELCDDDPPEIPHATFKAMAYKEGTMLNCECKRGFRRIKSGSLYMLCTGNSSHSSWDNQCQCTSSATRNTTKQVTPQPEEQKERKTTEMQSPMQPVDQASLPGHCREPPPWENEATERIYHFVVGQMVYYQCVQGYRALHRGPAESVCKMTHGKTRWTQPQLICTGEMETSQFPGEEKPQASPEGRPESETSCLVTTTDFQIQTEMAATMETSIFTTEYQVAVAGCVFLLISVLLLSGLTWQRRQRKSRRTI
The experiment is described as follows: cell-based or functional assay.

B1: mouse surrogate Fc-IL-2v heterodimer 169.250 (IL2v_F56A_Y59G_E76A_C140A) (Fc fusion)
chain 1: GPTIKPCPPCKCPAPNAAGGPSVFIFPPKIKDVLMISLSPIVTCVVVDVSEDDPDVQISWFVNNVEVHTAQTQTHREDYNSTLRVVSALPIQHQDWMSGKEFKCKVNNKDLGAPIERTISKPKGSVRAPQVYVLPPPEEEMTKKQVTLWCMVTDFMPEDIYVEWTNNGKTELNYKNTEPVLDSDGSYFMYSKLRVEKKNWVERNSYSCSVVHEGLHNHHTTKSFSRTPGGGGGSGGGGSGGGGSGGGGSQQQHLEQLLMDLQELLSRMENYRNLKLPRMLTAKFGLPKQATELKDLQCLEDALGPLRHVLDLTQSKSFQLEDAENFISNIRVTVVKLKGSDNTFECQFDDESATVVDFLRRWIAFAQSIISTSPQ
chain 2: GPTIKPCPPCKCPAPNAAGGPSVFIFPPKIKDVLMISLSPIVTCVVVDVSEDDPDVQISWFVNNVEVHTAQTQTHREDYNSTLRVVSALPIQHQDWMSGKEFKCKVNNKDLGAPIERTISKPKGSVRAPQVYVLPPPEEEMTKKQVTLSCAVTDFMPEDIYVEWTNNGKTELNYKNTEPVLDSDGSYFMVSKLRVEKKNWVERNSYSCSVVHEGLHNHHTTKSFSRTPGK
Take B1: the “pSTAT5 EC50, STAT5 activation of CTLL-2 cells” value in experiment [1] was 51.4 nM.

B2: Fc-IL-2v heterodimer 87.46 (hIL-2v_Δ1-5_Y45G_C125S) (Fc fusion)
chain 1: ESKYGPPCPPCPAPEAAGGPSVFLFPPKPKDTLMISRTPEVTCVVVDVSQEDPEVQFNWYVDGVEVHNAKTKPREEQFNSTYRVVSVLTVLHQDWLNGKEYKCKVSNKGLPSSIEKTISKAKGQPREPQVYTLPPSQEEMTKNQVSLWCLVKGFYPSDIAVEWESNGQPENNYKTTPPVLDSDGSFFLYSRLTVDKSRWQEGNVFSCSVMHEALHNHYTQKSLSLSLGGGGGSGGGGSGGGGSGGGGSSTKKTQLQLEHLLLDLQMILNGINNYKNPKLTRMLTFKFGMPKKATELKHLQCLEEELKPLEEVLNLAQSKNFHLRPRDLISNINVIVLELKGSETTFMCEYADETATIVEFLNRWITFSQSIISTLT
chain 2: ESKYGPPCPPCPAPEAAGGPSVFLFPPKPKDTLMISRTPEVTCVVVDVSQEDPEVQFNWYVDGVEVHNAKTKPREEQFNSTYRVVSVLTVLHQDWLNGKEYKCKVSNKGLPSSIEKTISKAKGQPREPQVYTLPPSQEEMTKNQVSLSCAVKGFYPSDIAVEWESNGQPENNYKTTPPVLDSDGSFFLVSRLTVDKSRWQEGNVFSCSVMHEALHNRFTQKSLSLSLGK
notes: hIgG4 knob-in-hole Fc heterodimer, one IL-2v on the knob chain
As to B2, the “STAT5 activation of CTLL-2 cells, EC50” value in experiment [2] stood at 0.2 nM. Moreover, the results for the dissociation constant (Kd) in experiment [3], in experiment [4] and in experiment [5] were 7000 nM, 269 nM and 0.016 nM, respectively. Also, in experiment [6], the “Treg EC50, STAT5 activation (PBMC STAT5 assay)” value (“Treg EC50, STAT5 activation” for short) is 0.03 nM.

B3: Fc-IL-2v heterodimer 90.46 (hIL-2v_Δ1-5_E62A_C125S) (Fc fusion)
chain 1: ESKYGPPCPPCPAPEAAGGPSVFLFPPKPKDTLMISRTPEVTCVVVDVSQEDPEVQFNWYVDGVEVHNAKTKPREEQFNSTYRVVSVLTVLHQDWLNGKEYKCKVSNKGLPSSIEKTISKAKGQPREPQVYTLPPSQEEMTKNQVSLWCLVKGFYPSDIAVEWESNGQPENNYKTTPPVLDSDGSFFLYSRLTVDKSRWQEGNVFSCSVMHEALHNHYTQKSLSLSLGGGGGSGGGGSGGGGSGGGGSSTKKTQLQLEHLLLDLQMILNGINNYKNPKLTRMLTFKFYMPKKATELKHLQCLEEALKPLEEVLNLAQSKNFHLRPRDLISNINVIVLELKGSETTFMCEYADETATIVEFLNRWITFSQSIISTLT
chain 2: ESKYGPPCPPCPAPEAAGGPSVFLFPPKPKDTLMISRTPEVTCVVVDVSQEDPEVQFNWYVDGVEVHNAKTKPREEQFNSTYRVVSVLTVLHQDWLNGKEYKCKVSNKGLPSSIEKTISKAKGQPREPQVYTLPPSQEEMTKNQVSLSCAVKGFYPSDIAVEWESNGQPENNYKTTPPVLDSDGSFFLVSRLTVDKSRWQEGNVFSCSVMHEALHNRFTQKSLSLSLGK
notes: as for B2
As for B3, in experiment [2], the “STAT5 activation of CTLL-2 cells, EC50” value came out at 2 nM. Further, the values for the Kd in experiment [3], in experiment [4] and in experiment [5] were 8100 nM, 2400 nM and 0.152 nM, respectively. Moreover, in experiment [6], the “Treg EC50, STAT5 activation” value was 0.08 nM.

B4: Fc-IL-2v heterodimer 89.46 (hIL-2v_Δ1-5_E61A_C125S) (Fc fusion)
chain 1: ESKYGPPCPPCPAPEAAGGPSVFLFPPKPKDTLMISRTPEVTCVVVDVSQEDPEVQFNWYVDGVEVHNAKTKPREEQFNSTYRVVSVLTVLHQDWLNGKEYKCKVSNKGLPSSIEKTISKAKGQPREPQVYTLPPSQEEMTKNQVSLWCLVKGFYPSDIAVEWESNGQPENNYKTTPPVLDSDGSFFLYSRLTVDKSRWQEGNVFSCSVMHEALHNHYTQKSLSLSLGGGGGSGGGGSGGGGSGGGGSSTKKTQLQLEHLLLDLQMILNGINNYKNPKLTRMLTFKFYMPKKATELKHLQCLEAELKPLEEVLNLAQSKNFHLRPRDLISNINVIVLELKGSETTFMCEYADETATIVEFLNRWITFSQSIISTLT
chain 2: ESKYGPPCPPCPAPEAAGGPSVFLFPPKPKDTLMISRTPEVTCVVVDVSQEDPEVQFNWYVDGVEVHNAKTKPREEQFNSTYRVVSVLTVLHQDWLNGKEYKCKVSNKGLPSSIEKTISKAKGQPREPQVYTLPPSQEEMTKNQVSLSCAVKGFYPSDIAVEWESNGQPENNYKTTPPVLDSDGSFFLVSRLTVDKSRWQEGNVFSCSVMHEALHNRFTQKSLSLSLGK
notes: as for B2
Regarding B4, the “STAT5 activation of CTLL-2 cells, EC50” value in experiment [2] stood at 0.02 nM. Moreover, the Kd (commonly the constant that tells how readily two partners part at equilibrium) in experiment [3] was 8800 nM; in experiment [4], 419 nM; in experiment [5], 0.065 nM. Besides, the “Treg EC50, STAT5 activation” value in experiment [6] turned out to be 0.04 nM.
